Results taken from PMC7442695 (Nature, 2020).

B1: C009 monoclonal antibody (IgG) (antibody, V domains shown)
VH: not shown
VL: QSALTQPPSASGSPGQSVTISCTGTSSDVGGYNYVSWYQQHPGKAPKLMIYEVSKRPSGVPDRFSGSKSGNTASLTVSGLQAEDEAEYYCSSDAGSNNVVFGGGTKLTVL
B2: C101 monoclonal antibody (IgG) (antibody, V domains shown)
VH: QVQLVESGGGLIQPGGSLRLSCAASGFIVSSNYMSWVRQAPGKGLEWVSVIYSGGSTFYTDSVKGRFTISRDNSKNTLYLQMNSLRAEDTAVYYCVRDYGDFYFDYWGQGTLVTVSS
VL: EIVLTQSPGTLSLSPGERATLSCRASQSVSSSYLAWYQQKPGQAPRLLIYGASSRATGIPDRFSGGGSETDFTLTISRLEPEDCAVYYCQQYGSSPRTFGQGTKVEIK
B3: C119 monoclonal antibody (IgG) (antibody, V domains shown)
VH: QVQLVQSGAEVKKPGASVKVSCKASGYTFTSYYMHWVRQAPGQGLEWMGIINPSGGSTSYAQKLQGRVTMTRDTSTSTVYMELSSLRSEDTAVYYCARANHETTMDTYYYYYYMDVWGKGTTVTVSS
VL: QSALTQPASVSGSPGQSITISCTGTSSDVGGYKYVSWYQRHPGKAPKLMIYDVSNRPSGVSNRFSGSKSGNTASLTISGLQAEDEADYYCSSYTSSSTSVVFGGGTQLTVL
B4: C002 monoclonal antibody (IgG) (antibody, V domains shown)
VH: EVQLVESGGGVVQPGRSLRLSCAASGFTFSIYGMHWVRQAPGKGLEWVAVISYDGSNKYYADSVKGRFTISRDNSKNTLYLQMNSLRAEDTAVYYCAKEGRPSDIVVVVAFDYWGQGTLVTVSS
VL: not shown
B5: C121 monoclonal antibody (IgG) (antibody, V domains shown)
VH: not shown
VL: QSALTQPASVSGSPGQSITISCTGTSSDVGSYNLVSWYQQHPGKAPKLMIYEGSKRPSGVSNRFSGSKSGNTASLTISGLQAEDEADYYCCSYAGSSTLVFGGGTKLTVL

Each binder was assayed against SARS-CoV-2 receptor binding domain (RBD; residues 331–524) (SARS-CoV-2, early isolate (GenBank …, UniProt P0DTC2) (assay: BLI).
B1: binds.
B2: binds.
B3: binds.
B4: binds.
B5: binds.
